Data reported in publication PMC5805711.
Where two headings read alike, the source gives them in different places.

What was measured:
His68 [1] = target: T1, His68 (UniProt position 68, KESTLHLVLRL); settings: Ubiquitin; form not further specified (literature value); cited from earlier work
His68 [2] = target: T1, His68; assay: NMR; settings: 23 °C; Not stated explicitly for Ub^WT; described as 'a similar pH titration' to that of pUb in citric acid-phosphate buffer; Free wild-type ubiquitin, folded

## Ubiquitin (Ub^WT) (Homo sapiens (inferred; the article does not state the species of the ubiquitin))
His68 [1]
  pKa: 5.5
His68 [2]
  pKa: 5.7
